Where two headings read alike, the source gives them in different places.
Tests used:
Assay in all cases: SPR
[1] = target: T1, misdisordered truncated tau 151-391/4R (UniProt P10636 468-708)
[2] = target: T1, misdisordered truncated tau 151-391/4R; remark: listed apart in the source
[3] = target: T1, misdisordered truncated tau 151-391/4R; remark: listed apart in the source

T1 sequence (P10636 468-708): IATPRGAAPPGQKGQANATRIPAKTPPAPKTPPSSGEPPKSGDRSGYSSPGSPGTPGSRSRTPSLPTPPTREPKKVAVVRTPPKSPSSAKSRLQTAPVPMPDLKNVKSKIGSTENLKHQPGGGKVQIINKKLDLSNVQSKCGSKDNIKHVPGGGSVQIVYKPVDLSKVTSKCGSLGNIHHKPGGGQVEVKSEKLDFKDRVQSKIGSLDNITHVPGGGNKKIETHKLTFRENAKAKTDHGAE

| Binder | Kd [1] | Kd [2] | Kd [3] |
| --- | --- | --- | --- |
| AX004, humanized DC8E8 RHD/RKA (isotype not stated where tested) (antibody) VH: QVQLVQSGAEVKKPGSSVKVSCKASGYTFSDYVISWVRQAPGQGLEWMGEIFPRSGSTYYNEKFKGRVTITADKSTSTAYMELSSLRSEDTAVYYCARDYYGTSFAMDYWGQGTLVTVSS light: DIVMTQSPLSLPVTPGEPASISCKSSQSLLNSRTRKNYLAWYLQKPGQSPQLLIYWASTRESGVPDRFTGSGSGTDFTLKISRVEAEDVGVYYCKQSFYLRTFGQGTKVEIKRTVAAPSVFIFPPSDEQLKSGTASVVCLLNNFYPREAKVQWKVDNALQSGNSQESVTEQDSKDSTYSLSSTLTLSKADYEKHKVYACEVTHQGLSSPVTKSFNRGEC | 14.7 nM | 14.7 nM |  |
| AX016, humanized DC8E8 RHD/RKB (isotype not stated where tested) (antibody) VH: QVQLVQSGAEVKKPGSSVKVSCKASGYTFSDYVISWVRQAPGQGLEWMGEIFPRSGSTYYNEKFKGRVTITADKSTSTAYMELSSLRSEDTAVYYCARDYYGTSFAMDYWGQGTLVTVSS light: DIVMSQSPLSLPVTPGEPASISCKSSQSLLNSRTRKNYLAWYLQKPGQSPQLLIYWASTRESGVPDRFTGSGSGTDFTLKISRVEAEDVGVYYCKQSFYLRTFGQGTKVEIKRTVAAPSVFIFPPSDEQLKSGTASVVCLLNNFYPREAKVQWKVDNALQSGNSQESVTEQDSKDSTYSLSSTLTLSKADYEKHKVYACEVTHQGLSSPVTKSFNRGEC | 9.39 nM |  | 9.39 nM |

Source: patent publication US20180142007A1 (published 2018)
